Laboratory results as given in patent publication US20230272113A1.

B1: FL-22 (scFv)
scFv: QVTLKESGPVLVKPTETLTLTCTVSGFSFRNARMGVSWIRQPPGKALEWLAHIFSNDEKSYSTSLKSRLTISKDTSKSQVVLTLTNMDPVDTATYFCARMPEYSSGWSGAFDIWGQGTMVTVSSGGGGSGGGGSGGGGSDIQMTQSPSSLSASVGDRVTITCRASQGISNYLAWYQQKPGKAPKRLIYAASTLQSGVPSRFSGSGSGTEFTLTISSLQPEDFATYYCLQHNTYPWTFGQGTKVEIK
B2: FL-23 (scFv)
scFv: QVTLKESGPALVKPTETLTLTCTVSGFSFRNARMGVSWIRQPPGKALEWLAHIFSNDEKSYSTSLKSRLTISKDTSKSQVVLTLTNMDPVDTATYFCARMPEYSSGWSGAFDIWGQGTMVTVSSGGGGSGGGGSGGGGSDIQMTQSPSSLSASVGDRVTITCRASQDIGYDLGWYQQKPGKAPKRLIYAASTLQSGVPSRFSGSGSGTEFTLIISSLQPEDFATYYCLQHNSFPWTFGQGTKVEIK
B3: FL-24 (scFv)
scFv: QVTLKESGPALVKPTETLTLTCTVSGFSLRNVRMGVSWIRQPPGKALEWLAHIFSNDEKSYSTSLKSRLTISKDTSKSQVVLILTNMDPVDTATYFCARMPEYSSGWSGAFDIWGQGTMVTVSSGGGGSGGGGSGGGGSDIQMTQSPSSLSASVGDRVTITCRASQDIRDDLVWYQQKPGKAPKRLIYAASTLQSGVPSRFSGSGSGTEFTLTISSLQPEDFATYYCLQHHSYPWTFGQGTKVEIK
B4: FL-25 (scFv)
scFv: QVTLKESGPALVKPTETLTLTCTVSGFSFRNARMGVSWIRQPPGKALEWLAHIFSNDEKSYSTSLKSRLTISKDTSKSQVVLTLTNMDPVDTATYFCARMPEYSSGWSGAFDIWGQGTMVTVSSGGGGSGGGGSGGGGSDIQMTQSPSSLSASVGDRVTITCRASQDIRDDLGWYQQKPGKAPKRLIYAASTLQSGVPSRFTGGGSGTEFTLTISSLQPEDFATYYCLQHNSFPFTFGGGTKVEIK
B5: FL-26 (scFv)
scFv: QVTLKESGPVLVKPTETLTLTCTVSGFSFRNARMGVSWIRQPPGKALEWLAHIFSNDEKSYSTSLKSRLTISKDTSKSQVVLTLTNMDPVDTATYFCARMPEYSSGWSGAFDIWGQGTMVTVSSGGGGSGGGGSGGGGSDIQMTQSPSSLSASVGDRVTITCRASQGIRNDLVWYQQKPGKAPKRLIYGTSTLQSGVPSRFSGSGSGTEFTLTISSLQPEDFATYYCLQHNSYPLTFGGGTKVEIK
B6: FL-27 (scFv)
scFv: QVTLKESGPVLVKPTETLTLTCTVSGFSFRNARMGVSWIRQPPGKALEWLAHIFSNDEKSYSTSLKSRLTISKDTSKSQVVLTLTNMDPVDTATYFCARMPEYSSGWSGAFDIWGQGTMVTVSSGGGGSGGGGSGGGGSDIQMTQSPSSLSASVGDRVTITCRTSQGIRNDLVWYQQKPGKAPKRLIYAASTLQSGVPSRFSGSGSGTEFTLTISSLQPEDFATYFCLQHYSYPLTFGGGTKVEIK
B7: FL-28 (scFv)
scFv: QVTLKESGPVLVKPTETLTLTCTVSGFSFRNARMGVSWIRQPPGKALEWLAHIFSNDEKSYSTSLKSRLTISKDTSKSQVVLTLTNMDPVDTATYFCARMPEYSSGWSGAFDIWGQGTMVTVSSGGGGSGGGGSGGGGSDIQMTQSPSSLSASVGDRVTITCRASQGIGDDLGWYQQIPGKAPKRLIYATSVLQSGVPSRFSGSGSGTEFTLTISSLQPEDFATYYCLQHNSYPLTFGGGTKVEIK
B8: FL-29 (scFv)
scFv: QVTLKESGPALVKPTQTLTLTCTFSGFSLSNARMGVSWIRQPPGKALEWLAHIFSNDEKSYRTSLKSRLTISKDTSKSQVVLTMTNMDPVDTATYYCARIVGYGSGWYAYFDYWGQGTLVTVSSGGGGSGGGGSGGGGSDIQMTQSPSSLSASVGDRVTITCRASQGIRNDLGWYQQKPGKAPKRLIYAASSLQSGVPSRFSGSGSGTEFTLTISSLQPEDFATYYCLQHNSYPLTFGGGTKVEIK
B9: FL-30 (scFv)
scFv: QVTLKESGPVLVKPTQTLTLTCTFSGFSLSNARMGVSWIRQPPGKALEWLALIYWNDDKRYSPSLKSRLTITKDTSKNQVVLTMTNMDPVDTATYYCARMVGYGSGWYAYFDYWGQGTLVTVSSGGGGSGGGGSGGGGSDIQMTQSPSSLSASVGDRVTITCRASQGIRNDLGWYQQKPGKAPKRLIYAASSLQSGVPSRFSGSGSGTEFTLTISSLQPEDFATYYCLQHNSYPLTFGGGTKVEIK
B10: FL-31 (scFv)
scFv: QVTLKESGPALVKPTQTLTLTCTFSGFSLSNARMGVSWIRQPPGKALEWLAHIFSNDEKSYSTSLKSRLTISKDTSKSQVVLTMTDMDPEDTATYYCARIVGYGTGWYGFFDYWGQGILVTVSSGGGGSGGGGSGGGGSDIQMTQSPSSLSASVGDRVTITCRTSQGIRNDLGWYQQKPGKAPKRLIYAASSLQSGVPSRFSGSGSGTEFTLTISSLQPEDFATYYCLQHNSYPLTFGGGTKVEIK
B11: FL-32 (scFv)
scFv: QVTLKESGPTLVKPTETLTLTCTVSGFSFRNARMGVSWIRQPPGKALEWLAHIFSNDEKSYSTSLKSRLTISKDTSKGQVVLTMTNMDPVDTATYYCARIVGYGSGWYGYFDYWGQGTLVTVSSGGGGSGGGGSGGGGSDIQMTQSPSSLSASVGDRVTITCRASQGIRNDLVWYQQKPGKAPKRLIYAASTLQSGVPSRFSGSGSGTEFILTISSLQPEDFATYFCLQHYSYPLTFGGGTKLEIK
B12: FL-33 (scFv)
scFv: QVTLKESGPVLVKPTETLTLTCTVSGFSLRNARMGVSWIRQPPGKTLEWLAHIFSNDEKSYSTSLKSRLTISKDTSKGQVVLTMTNMDPVDTATYYCARIVGYGSGWYGYFDYWGQGTLVTVSSGGGGSGGGGSGGGGSDIQMTQSPSSLSASVGDRVTITCRASQGIGDDLGWYQQIPGKAPKRLIYATSVLQSGVPSRFSGSGSGTEFTLTISSLQPEDFATYYCLQHNSYPLTFGGGTKLEIK
B13: FL-34 (scFv)
scFv: QVTLKESGPALVKPTETLTLTCTFSGFSLRNARMGVSWIRQPPGKALEWLAHIFWNDEKSYSTSLKSRLTISKDTSKSQVVLTMTNMDPVDTATYYCARIPYYGSGSYNYGMDVWGQGTTVTVSSGGGGSGGGGSGGGGSDIQMTQSPSSLSASVGDRVTITCRASQGIRNDLGWYQQKPGKAPKRLIYAASSLQSGVPSRFSGSGSGTEFTLTISSLQPEDFATYYCLQHNSYPLTFGGGTKLEIK
B14: FL-35 (scFv)
scFv: QVTLKESGPALVKPTETLTLTCTVSGFSLNNARMGVSWIRQPPGKALEWLAHIFSNDEKSYSTSLKNRLTISKDSSKTQVVLTMTNVDPVDTATYYCARIVGYGTGWYGFFDYWGQGTQVTVSSGGGGSGGGGSGGGGSDIQMTQSPSSLSASVGDRVTITCRASQDIRDDLVWYQQKPGKAPKRLIYGTSTLQSGVPSRFSGSGSGTEFTLTISSLQPEDFATYYCLQHHSYPLTFGGGTKLEIK
B15: FL-36 (scFv)
scFv: QVTLKESGPTLVKPTETLTLTCTFSGFSLRYARMGVSWIRQPPGKALEWLAHIFSNDEKSYSTSLKSRLTISKDTSKSQVVLTLTNMDPVDTATYFCARMPEYSSGWSGAFDIWGQGTMVTVSSGGGGSGGGGSGGGGSDIQMTQSPSSLSASVGDRVTITCRASQDIRNDLAWYQQKPGKAPKRLIYAASSLQSGVPSRFSGSGSGTEFTLTISSLQPEDFATYYCLQHNSYPLTFGGGTKLEIK
B16: FL-37 (scFv)
scFv: QVTLKESGPVLVKPTETLTLTCTVSGFSLRNIKMGVSWIRQPPGKALEWLAHIFSNDEKSYSTSLKSRLTISKDTSKSQVVLTLTNMDPVDTATYFCARMPEYSSGWSGAFDIWGQGTMVTVSSGGGGSGGGGSGGGGSDIQMTQSPSSLSASVGDRVTITCRASQDISNYLAWYQQKPGKAPKRLIYAASSLQSGVPSRFSGSGSGTEFTLTISSLQPEDFATYYCLQHNSFPLTFGGGTKLEIK
B17: FL-38 (scFv)
scFv: QVTLKESGPVLVKPTETLTLTCTVSGFSFRNARMGVSWIRQPPGKALEWLAHIFSNDEKSYSTSLKSRLTISKDTSKSQVVLTLTNMDPVDTATYFCARMPEYSSGWSGAFDIWGQGTLVTVSSGGGGSGGGGSGGGGSDIQMTQSPSSLSASVGDRVTITCRASQGIRNDLGWYQQKPGKAPKRLIYAASSLQSGVPSRFSGSGSGTEFTLTISSLQPEDFATYYCLQHNSYPLTFGGGTKLEIK
B18: FL-39 (scFv)
scFv: QVTLKESGPTLVKPTETLTLTCTLSGFSLNNARMGVSWIRQPPGKCLEWLAHIFSNDEKSYSTSLKNRLTISKDSSKTQVVLTMTNVDPVDTATYYCARIVGYGSGWYGFFDYWGQGTLVTVSSGGGGSGGGGSGGGGSDIQMTQSPSSLSASVGDRVTITCRASQGIRNDLGWYQQKPGKAPKRLIYAASTLQSGVPSRFSGSGSGTEFTLTISSLQPEDFATYYCLQHNSYPLTFGCGTKVEIK
B19: FL-40 (scFv)
scFv: QVTLKESGPTLVKPTETLTLTCTVSGFSLSNARMGVSWIRQPPGKCLEWLANIFSNDEKSYSTSLKSRLTISKGTSKSQVVLTMTNVNPVDTGTYYCARIVGYGSGWYGYFDYWGQGTLVTVSSGGGGSGGGGSGGGGSDIQMTQSPSSLSASVGDRVTITCRASQDIRNDLGWYQQKPGKAPKRLIYATSIRQSGVPSRFTGSGSGTEFTLTISGLQPEDFATYFCLQHNSFPLTFGCGTKVEIK
B20: FL-41 (scFv)
scFv: QVTLKESGPVLVKPTQTLTLTCTFSGFSLSNARMGVSWIRQPPGKCLEWLAHIFSNDEKSFSTSLKNRLTISKDTSKSQVVLTMTNMDPVDTATYYCARMVGYGSGWYAYFDYWGQGTQVTVSSGGGGSGGGGSGGGGSDIQMTQSPSSLSASVGDRVTITCRASQSISSYLNWYQQKPGKAPKLLIYAASSLQSGVPSRFSGSGSGTDFTLTISSLQPEDFATYYCLQHNSYPLTFGCGTKVEIK

Each binder was assayed against human FLT3 on transfected CHO cells (human) (UniProt P36888) (assay: FACS, scFv on CHO-human FLT3 cells pre-incubated with FLT3 ligand (competitor)).
B1 showed a median [+ligand]/median [w/o ligand]*100 greater than 75%. For B2, the median [+ligand]/median [w/o ligand]*100 was greater than 75%. With B3 the median [+ligand]/median [w/o ligand]*100 was greater than 75%. With B4 the median [+ligand]/median [w/o ligand]*100 was greater than 75%. Binder B5 has a median [+ligand]/median [w/o ligand]*100 greater than 75%. In the case of B6, the median [+ligand]/median [w/o ligand]*100 is reported as greater than 75%. For B7, the median [+ligand]/median [w/o ligand]*100 was greater than 75%. In the case of B8, the median [+ligand]/median [w/o ligand]*100 is reported as greater than 75%. For B9, the median [+ligand]/median [w/o ligand]*100 was greater than 75%. B10 showed a median [+ligand]/median [w/o ligand]*100 greater than 75%. B11 was tested, and the median [+ligand]/median [w/o ligand]*100 was greater than 75%. In the case of B12, the median [+ligand]/median [w/o ligand]*100 is reported as greater than 75%. For B13, the median [+ligand]/median [w/o ligand]*100 was greater than 75%. For B14, the median [+ligand]/median [w/o ligand]*100 was greater than 75%. B15 showed a median [+ligand]/median [w/o ligand]*100 greater than 75%. For B16, the median [+ligand]/median [w/o ligand]*100 was greater than 75%. B17 showed a median [+ligand]/median [w/o ligand]*100 greater than 75%. B18 showed a median [+ligand]/median [w/o ligand]*100 greater than 75%. Binder B19 has a median [+ligand]/median [w/o ligand]*100 greater than 75%. B20 was tested, and the median [+ligand]/median [w/o ligand]*100 was greater than 75%.
